Measured values taken from the Immune Epitope Database (IEDB).

biological target: HLA-A*02:06; assay: IEDB peptide-MHC binding, purified MHC/competitive/radioactivity; ≥ and ≤ were set here for values at or beyond the usual limits of such assays; conditions: source organism: Vaccinia virus WR

Sequence	IC50 [nM]
IVNTTYDFL	2990
IVPEFAKQYV	15
IVSKCIVQSV	552
IVTFINDYA	1150
IVVALSSLV	8.2
IVVPVIDRL	31
IVYGRSNAI	30
IVYGRSNAIL	424
KAKQLCYCPA	339
KASTISWMM	797
KIEDLINQLV	145
KIMEIVSHL	30
KIYTLIYRQL	912
KLFTHDIML	4.7
KLLYAAEMV	18
KLPTLFGRGV	53
KLYGYASLTT	34
KMAVEVGSI	119

Sequence	IC50 [nM]
KQYDSTDFKM	107
KTANNYETI	329
KTDGAVTSPL	347
KVEKYLPEV	116
KVIKLVKSL	260
KVLSIMAFIL	19
KVTGSYNLV	193
KVYLSTFNM	265
LAISAVYFKA	659
LALKNSQAEL	1250
LATLNTLITL	323
LAYYNSCMLT	86
LIAGIILLIL	345
LISFFGLFDI	171
LISLINSLV	72
LIVILFIMFM	120
LIYDDNIDSI	212

biological target: HLA-A*02:02; assay: as above; conditions: source organism: Hepacivirus hominis

Sequence	IC50 [nM]
KLLIAILGPL	12
LIQDWIPPL	110
LIVMLLFAGV	3390

same assay, conditions: source organism: Mammarenavirus juninense

Sequence	IC50 [nM]
KSGLFQFFV	23

same assay, conditions: source organism: Mammarenavirus machupoense

Sequence	IC50 [nM]
KSFFWFNEV	62

same assay, conditions: source organism: SARS-CoV1

Sequence	IC50 [nM]
IMQVFFGYFA	590
ITAIYVFCI	29
ITMTTVYHI	19
IVAALVFLI	0.14
IVDTVSALV	17
IVNSVLLFL	7.1
KIILFLTLI	68
KLIEYSDFA	0.095
KLMGHFSWWT	64
LAFVVFLLV	458
LIANIFTPLV	0.4
LIDFYLCFL	8.3
LIVAALVFL	9.4
LIVNSVLLFL	3.7

same assay, conditions: source organism: Vaccinia virus WR

Sequence	IC50 [nM]
IMETIDPVYI	29
IMFMLIFNV	0.15
IMRVMANNV	396
IMSIGFEARI	703
IMSMMNITRL	62
IMTSTRTIIL	1020
IQYRQQLEL	511
ITDNGPMPYM	828
ITTLLNETA	414
ITYCLVTHM	1280
IVAAVIIMAI	727
IVAMLLTHGA	1160
IVCIVAAVII	1460
IVDSMIIGHI	507
IVILFIMFM	1860
IVNCLSLSNL	338
IVNTTYDFL	1880
IVPEFAKQYV	10
IVSKCIVQSV	123
IVTFINDYA	140
IVVALSSLV	27
IVVPVIDRL	144
IVYGRSNAI	15
IVYGRSNAIL	92
KAKQLCYCPA	308
KASTISWMM	429

Sequence	IC50 [nM]
KIEDLINQLV	87
KIMEIVSHL	79
KIYTLIYRQL	707
KLFTHDIML	1
KLLYAAEMV	58
KLPTLFGRGV	190
KLYGYASLTT	1.9
KMAVEVGSI	31
KQYDSTDFKM	8.4
KTANNYETI	37
KTDGAVTSPL	62
KVEKYLPEV	1050
KVIKLVKSL	578
KVLSIMAFIL	2.3
KVTGSYNLV	66
KVYLSTFNM	482
LAISAVYFKA	1430
LALKNSQAEL	741
LATLNTLITL	139
LAYYNSCMLT	12
LIAGIILLIL	141
LISFFGLFDI	76
LISLINSLV	0.48
LIVILFIMFM	85
LIYDDNIDSI	121

biological target: HLA-A*02:03; assay: as above; conditions: source organism: Hepacivirus hominis

Sequence	IC50 [nM]
KLLIAILGPL	5.9
LIQDWIPPL	177
LIVMLLFAGV	358

same assay, conditions: source organism: Mammarenavirus juninense

Sequence	IC50 [nM]
KSGLFQFFV	1560

same assay, conditions: source organism: Mammarenavirus machupoense

Sequence	IC50 [nM]
KSFFWFNEV	265

same assay, conditions: source organism: SARS-CoV1

Sequence	IC50 [nM]
IMQVFFGYFA	1570
ITAIYVFCI	89
ITMTTVYHI	7.2
IVAALVFLI	15
IVDTVSALV	528
IVNSVLLFL	179
KIILFLTLI	4.9
KLIEYSDFA	0.53
KLMGHFSWWT	213
LAFVVFLLV	1270
LIANIFTPLV	13
LIDFYLCFL	61
LIVAALVFL	136
LIVNSVLLFL	90

same assay, conditions: source organism: Vaccinia virus WR

Sequence	IC50 [nM]
IMETIDPVYI	239
IMFMLIFNV	10
IMRVMANNV	1260
IMSIGFEARI	1500
IMSMMNITRL	106
IMTSTRTIIL	52
IQYRQQLEL	45
ITDNGPMPYM	1180
ITTLLNETA	936
ITYCLVTHM	2330
IVAAVIIMAI	2610
IVAMLLTHGA	153
IVCIVAAVII	1590
IVDSMIIGHI	208
IVILFIMFM	1680
IVNCLSLSNL	128
IVNTTYDFL	4680
IVPEFAKQYV	18
IVSKCIVQSV	31
IVTFINDYA	2960
IVVALSSLV	3.9
IVVPVIDRL	226
IVYGRSNAI	16
IVYGRSNAIL	33
KAKQLCYCPA	188
KASTISWMM	556

Sequence	IC50 [nM]
KIEDLINQLV	71
KIMEIVSHL	10
KIYTLIYRQL	1030
KLFTHDIML	3
KLLYAAEMV	54
KLPTLFGRGV	33
KLYGYASLTT	0.26
KMAVEVGSI	2.8
KQYDSTDFKM	3280
KTANNYETI	38
KTDGAVTSPL	400
KVEKYLPEV	171
KVIKLVKSL	43
KVLSIMAFIL	684
KVTGSYNLV	43
KVYLSTFNM	786
LAISAVYFKA	363
LALKNSQAEL	333
LATLNTLITL	338
LAYYNSCMLT	16
LIAGIILLIL	680
LISFFGLFDI	108
LISLINSLV	0.48
LIVILFIMFM	433
LIYDDNIDSI	26
